Target: the molecule itself
Assay: SDS-PAGE and immunoblot

B1: intestinal lactoferrin receptor (LfR) (receptor, human (endogenous in Caco-2), UniProt Q8WWA0 19-298, looked up)
chain: TDEANTYFKEWTCSSSPSLPRSCKEIKDECPSAFDGLYFLRTENGVIYQTFCDMTSGGGGWTLVASVHENDMRGKCTVGDRWSSQQGSKAVYPEGDGNWANYNTFGSAEAATSDDYKNPGYYDIQAKDLGIWHVPNKSPMQHWRNSSLLRYRTDTGFLQTLGHNLFGIYQKYPVKYGEGKCWTDNGPVIPVVYDFGDAQKTASYYSPYGQREFTAGFVQFRVFNNERAANALCAGMRVTGCNTEHHCIGGGGYFPEASPQQCGDFSGFDWSGYGTHVGYS
stoichiometry N: 3

Reference: article PMC3178039 (Journal of cellular physiology, 2011)
